Test results as given in the supplement of paper PMC5998384.

Legend:
HeLa Kyoto [1] = test: melting temperature (median over replicates), in situ; higher = more thermally stable
HeLa Kyoto [2] = test: thermal stability score vs G1/S (z-score of summed log2 fold changes over temperatures); higher = more thermally stable than in G1/S
[3] = cell cycle stage: early G1 (4.5 h after nocodazole release)
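Wherever melting temperature (median over replicates), in situ is given: HeLa Kyoto cells synchronized by double thymidine or nocodazole block, proteins quantified by TMT10plex mass spectrometry, three independent biological replicates.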
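Wherever thermal stability score vs G1/S (z-score of summed log2 fold changes over temperatures) is given: synchronized HeLa Kyoto cells, proteins quantified by TMT10plex mass spectrometry, three biological replicates, mitosis taken 0.5 h after nocodazole release, G1/S directly after double thymidine block.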

| Sequence | melting temperature (HeLa Kyoto [1]; cell cycle stage: G1/S) | melting temperature (HeLa Kyoto [1]; cell cycle stage: mitosis) | thermal stability score (HeLa Kyoto [2]; [3]) | thermal stability score (HeLa Kyoto [2]; cell cycle stage: mitosis) |
| --- | --- | --- | --- | --- |
| MGKVWKQQMYPQYATYYYPQYLQAKQSLVPAHPMAPPSPSTTSSNNNSSSSSNSGWDQLSKTNLYIRGLPPHTTDQDLVKLCQPYGKIVSTKAILDKTTNKCKGYGFVDFDSPAAAQKAVSALKASGVQAQMAKQQEQDPTNLYISNLPLSMDEQELENMLKPFGQVISTRILRDSSGTSRGVGFARMESTEKCEAVIGHFNGKFIKTPPGVSAPTEPLLCKFADGGQKKRQNPNKYIPNGRPWHREGEVRLAGMTLTYDPTTAAIQNGFYPSPYSIATNRMITQTSITPYIASPVSAYQVQSPSWMQPQPYILQHPGAVLTPSMEHTMSLQPASMISPLAQQMSHLSLGSTGTYMPATSAMQGAYLPQYAHMQTTAVPVEEASGQQQVAVETSNDHSPYTFQPNK [RBMS1] | 53.4 °C | 52.4 °C | -0.758 | -1.24 |
| MSEGDSVGESVHGKPSVVYRFFTRLGQIYQSWLDKSTPYTAVRWVVTLGLSFVYMIRVYLLQGWYIVTYALGIYHLNLFIAFLSPKVDPSLMEDSDDGPSLPTKQNEEFRPFIRRLPEFKFWHAATKGILVAMVCTFFDAFNVPVFWPILVMYFIMLFCITMKRQIKHMIKYRYIPFTHGKRRYRGKEDAGKAFAS [RER1] | 55.1 °C | 55.5 °C | -0.257 | -1.81 |
| MPSPQLLVLFGSQTGTAQDVSERLGREARRRRLGCRVQALDSYPVVNLINEPLVIFVCATTGQGDPPDNMKNFWRFIFRKNLPSTALCQMDFAVLGLGDSSYAKFNFVAKKLHRRLLQLGGSALLPVCLGDDQHELGPDAAVDPWLRDLWDRVLGLYPPPPGLTEIPPGVPLPSKFTLLFLQEAPSTGSEGQRVAHPGSQEPPSESKPFLAPMISNQRVTGPSHFQDVRLIEFDILGSGISFAAGDVVLIQPSNSAAHVQRFCQVLGLDPDQLFMLQPREPDVSSPTRLPQPCSMRHLVSHYLDIASVPRRSFFELLACLSLHELEREKLLEFSSAQGQEELFEYCNRPRRTILEVLCDFPHTAAAIPPDYLLDLIPVIRPRAFSIASSLLTHPSRLQILVAVVQFQTRLKEPRRGLCSSWLASLDPGQGPVRVPLWVRPGSLAFPETPDTPVIMVGPGTGVAPFRAAIQERVAQGQTGNFLFFGCRWRDQDFYWEAEWQELEKRDCLTLIPAFSREQEQKVYVQHRLRELGSLVWELLDRQGAYFYLAGNAKSMPADVSEALMSIFQEEGGLCSPDAAAYLARLQQTRRFQTETWA [NDOR1] | 52.6 °C | – | -0.788 | -0.432 |
| MLTTLLPILLLSGWAFCSQDASDGLQRLHMLQISYFRDPYHVWYQGNASLGGHLTHVLEGPDTNTTIIQLQPLQEPESWARTQSGLQSYLLQFHGLVRLVHQERTLAFPLTIRCFLGCELPPEGSRAHVFFEVAVNGSSFVSFRPERALWQADTQVTSGVVTFTLQQLNAYNRTRYELREFLEDTCVQYVQKHISAENTKGSQTSRSYTSLVLGVLVGSFIIAGVAVGIFLCTGGRRC [PROCR] | 59.1 °C | 57.1 °C | 1.63 | 0.816 |
| MSEKSVEAAAELSAKDLKEKKEKVEEKASRKERKKEVVEEEENGAEEEEEETAEDGEEEDEGEEEDEEEEEEDDEGPALKRAAEEEDEADPKRQKTENGASA [PTMS] | 55.5 °C | 51.9 °C | -1.16 | -2.62 |
| MAFLGLFSLLVLQSMATGATFPEEAIADLSVNMYNRLRATGEDENILFSPLSIALAMGMMELGAQGSTQKEIRHSMGYDSLKNGEEFSFLKEFSNMVTAKESQYVMKIANSLFVQNGFHVNEEFLQMMKKYFNAAVNHVDFSQNVAVANYINKWVENNTNNLVKDLVSPRDFDAATYLALINAVYFKGNWKSQFRPENTRTFSFTKDDESEVQIPMMYQQGEFYYGEFSDGSNEAGGIYQVLEIPYEGDEISMMLVLSRQEVPLATLEPLVKAQLVEEWANSVKKQKVEVYLPRFTVEQEIDLKDVLKALGITEIFIKDANLTGLSDNKEIFLSKAIHKSFLEVNEEGSEAAAVSGMIAISRMAVLYPQVIVDHPFFFLIRNRRTGTILFMGRVMHPETMNTSGHDFEEL [SERPINI1] | 57 °C | 57.8 °C | 0.548 | 1.27 |
| MVAPVWYLVAAALLVGFILFLTRSRGRAASAGQEPLHNEELAGAGRVAQPGPLEPEEPRAGGRPRRRRDLGSRLQAQRRAQRVAWAEADENEEEAVILAQEEEGVEKPAETHLSGKIGAKKLRKLEEKQARKAQREAEEAEREERKRLESQREAEWKKEEERLRLEEEQKEEEERKAREEQAQREHEEYLKLKEAFVVEEEGVGETMTEEQSQSFLTEFINYIKQSKVVLLEDLASQVGLRTQDTINRIQDLLAEGTITGVIDDRGKFIYITPEELAAVANFIRQRGRVSIAELAQASNSLIAWGRESPAQAPA [DDRGK1] | 52.9 °C | 52.9 °C | -0.767 | -0.701 |
